Laboratory results published in publication PMC6453916, “Radical-mediated C-S bond cleavage in C2 sulfonate degradation by anaerobic bacteria” (Nature Communications, 2019).

Key:
[1] = target: IseG (−23 a.a.), isethionate sulfo-lyase from Desulfovibrio vulgaris Hildenborough with an N-terminal 23-a.a. truncation (Desulfovibrio vulgaris Hildenborough) (UniProt Q727N1); test: SEC; 2.5 mg/mL IseG (−23 a.a.), 2 mL on a Superdex 200 column (300 mL), buffer D (10 mM HEPES/KOH pH 7.4, 250 mM KCl, 10 mM BME), 3 mL/min; mass from elution volume against molecular weight markers (observed 196 kDa, monomer calculated 91.3 kDa)
[2] = target: T1, DpIseK (substrate-binding subunit of the IseG-associated TRAP transporter) (Desulfovibrio piger, UniProt A0A1K1LFE7); test: isothermal titration calorimetry
T1 construct: gene DESPIGER_1592; soluble periplasmic subunit, codon-optimised, expressed as His6-MBP-TEV fusion; MBP tag cleaved and removed before ITC
T1 sequence (A0A1K1LFE7 24-332): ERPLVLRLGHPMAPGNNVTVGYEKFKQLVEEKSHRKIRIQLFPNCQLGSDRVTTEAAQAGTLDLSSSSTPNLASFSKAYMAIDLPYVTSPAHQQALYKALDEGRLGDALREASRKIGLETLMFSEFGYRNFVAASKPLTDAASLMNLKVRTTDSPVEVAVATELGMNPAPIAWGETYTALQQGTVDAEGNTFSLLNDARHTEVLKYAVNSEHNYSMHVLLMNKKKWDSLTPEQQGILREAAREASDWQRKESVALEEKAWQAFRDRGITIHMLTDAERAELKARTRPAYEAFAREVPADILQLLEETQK

[3] = target: T2, TauF (BwTauF, sulfoacetaldehyde reductase) (Bilophila wadsworthia, UniProt E5Y946); test: NADH oxidation at […] nm; assay type: biochemical; settings: 5 mM sulfoacetaldehyde (introduced as bisulfite adduct), 0.5 mM NADH, 0.1 M Tris pH 7.5, 0.1 M KCl
T2 construct: gene sarD; codon-optimised, His6-TEV (HT) vector, E. coli
T2 sequence (E5Y946 1-387): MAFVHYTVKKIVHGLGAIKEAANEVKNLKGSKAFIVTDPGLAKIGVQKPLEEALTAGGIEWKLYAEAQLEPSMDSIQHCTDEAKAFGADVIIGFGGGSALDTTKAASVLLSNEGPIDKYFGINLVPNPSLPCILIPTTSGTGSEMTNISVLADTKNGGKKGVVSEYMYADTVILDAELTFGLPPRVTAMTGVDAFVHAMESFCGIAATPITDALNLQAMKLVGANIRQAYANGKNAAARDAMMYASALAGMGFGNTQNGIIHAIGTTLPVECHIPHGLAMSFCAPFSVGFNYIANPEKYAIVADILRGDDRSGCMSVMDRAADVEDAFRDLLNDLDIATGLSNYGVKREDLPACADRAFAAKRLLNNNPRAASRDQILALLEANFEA

purified protein = substrate: O=S(=O)(O)CCO; test: purified protein; assay type: biochemical, Nitratidesulfovibrio vulgaris; settings: IseG activated by IseH, SAM and Ti(III) citrate; anaerobic, room temperature, 250 nM IseG

IseG (−23 a.a.), isethionate sulfo-lyase from Desulfovibrio vulgaris Hildenborough with an N-terminal 23-a.a. truncation (from UniProt Q727N1 24-828) (enzyme)
stoichiometry N [1]: 2

O=S(=O)(O)CCO [isethionate]
Kd [2]: 500 nM

NC(=O)C1=CN([C@@H]2O[C@H](COP(=O)(O)OP(=O)(O)OC[C@H]3O[C@@H](n4cnc5c(N)ncnc54)[C@H](O)[C@@H]3O)[C@@H](O)[C@H]2O)C=CC1 [NADH]
NADH oxidation at 340 nm [3]: demonstrates that BwTauF is a sulfoacetaldehyde reductase

O=CCS(=O)(=O)O [sulfoacetaldehyde]
NADH oxidation at 340 nm [3]: TauF, catalyzed NADH-dependent reduction of sulfoacetaldehyde

B1: IseG (GUF, isethionate sulfo-lyase) (Nitratidesulfovibrio vulgaris str. Hildenborough) (protein)
chain: MQCCNQLSPHEQRLQDKIEGKVDRYRATHERVFTILESFDNTRPRIDVERAKYFTESMKATEGQPLPLRWAKALMHIAENMTVYIDDHQLICGRAGYQGRYGVLYPELDGDFLGTAIEDLPNRAESPFAITPEDARVVVEEIAPFWKGKTYHEALNLALPADVHKLTYDDPQGLMSRFIVNETSSFRSSIQWVHDYEKVLKRGFRSIKEEALEKIAALDPMSPCDNVEKRPFLEAIVIVCDAIILWAKRHAKLAAELAAKETDPTRKRELETMAEICAWVPENPARTFHEAVQAQWFTQVFSRIEQKTGTIVSNGRMDQYFWPFYEKDLAEGRITEDSALELLECMWVGMAQYVDLYISPTGGAFNEGYAHWEAVTIGGQTPEGRDATNDLTYLFLKSKREFPLHYPDLAARIHSRSPERYLWEVAETIKDGSGFPKLINDEEVVPLYVSKGATFAEALDYAVSGCTEARMPNRDTYTSGGAYINFAAALEMVLYNGKMLKYGDTDLGAHTGDPCEFKTWEEFWNAYVTQHHLFLKTAFVQQHIINNLRARHFAQPMGSSLHDLCMKHCLDLHTPQIPEGINLGYFEYMGFGTVVDSLSAIKKLVFEDKKLTMGELIEALKCNFEGKEDIQQLLKSAPCYGNNDDYADSIARDIDALSVKYGRRYSPELGMHNDVRYVPFTSHVPFGRVVSATPNGRKAWSALSDGSSASHGADVNGPTAILQSNFNSKNYGMRDRAARMLNIKFTPKCVEGEEGSQKLVSFIRTFCDLKLWHVQFNVINKETLLAAQRDPEKYRNLIVRIAGYSAYFVDLSPDLQNDLIARTGHDVM
notes: pET-28a(+)-His6-IseG, codon-optimised, full length, His tag kept, E. coli BL21(DE3); dimer; glycyl radical installed by IseH/SAM/Ti(III) citrate
Km (purified protein): 44.8 ± 3.5 mM
kcat (purified protein): 91.6 ± 3.3 s⁻¹
